Test results taken from paper PMC11499270 (Nature, 2024).

Assays:
[1] = pigs; previously observed; cited from earlier work
[2] = target: human insulin receptor A (human) (UniProt P06213); assay: radioligand binding

| fold increase in hIR-A affinity, 20 vs 0 mM glucose, without albumin [2] | Substance | half-life after s.c. administration [1] |
| --- | --- | --- |
| – | insulin detemir | 6.5 h |
| 6.8 fold | NNC2215 (from UniProt P01308 90-110; P01308 25-53) (ligand) | – |
